# Assay: soluble fraction after stress (log2 fold change); higher = more stays soluble; pooled small domains, quantitative proteomics
# Conditions: stress: pH 4
# How it was run: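 Following acid stress at pH 4, the amount of each small protein domain still soluble was measured in pooled custom libraries by high-throughput quantitative proteomics. Its fold change, on a log2 scale, is higher when more of the domain stayed soluble. This fold change is taken as a measure of aggregation propensity.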
row,Sequence,soluble fraction (log2)
1,HMIEQIELEARVPDELGGQRLDQVAAQMFDDFSRSRLTGWIRDGSLTADGQQLRPRDIVYGGTLLQLKAEQ,-0.151
2,HMIESFQNGLVEHDQFTRPNPWVTPNFSKIEVPSILLSGKHADIDLWKHQNSIENTKKNRPDLFKNYLKKN,-0.357
3,HMIEYILDYLANRGVYAASQGEQQQMEDGIARYLQENGLEDGNTGAYYQKYVSNHLQQISASDLKAYFLN,-1.49
4,HMIEYYDDEELDVFKGRQSDNYTNKEIEQFAEVLHTMRQDEVKGWNRSLILRSINLPDSLKDEVIMLI,-2.53
5,HMIFDPTTLPEKQLLVYGIISSHPGLNAKQISEMLTLKKSSIETAIKGLRKKEIIEYEGTTRNGG,-0.17
6,HMIFEEDILKEFRGSLIFITHDRRFLDNIATRIIELDRGKLLSFPGNFSAYKKAKNEQLANEAVENA,-1.17
7,HMIFEETVFKDIAFGPKNMGLSEAEIKRRVYETAENIGLSQELMERSPFELSGGQKRRVAIAGVMAMEP,-0.878
8,HMIFELDSDRASAGNTIGKLVSKWNNTEVASVQFVSGDDTSNKDNASIYLNTRSGGSGNLVRLRITK,0.108
9,HMIFRPALITDLDAVERHYTELLTREAETGRSSTNWSLGVYPTRQTATAAQAAGTLWVLEREGQVVASVI,-0.552
10,HMIFTPNGDRVNDVFEIEMGVKLEFQIIILNQQNQTVFKSADPDFKWDGTMLNGEPAPSGTYLYYFSAKD,0.22
11,HMIGERIKRARAAAGLSMQALGKQVGISANMVKKYEHDQSMPSSGVLLKLATALSVRTEYFFRPA,-0.0616
12,HMIGGASVFKQFLPLADKMLLTLIHSEFEGDTYFPVFSEKEWLLQESSSLLSATGYQLSFQTYIR,0.013
13,HMIGGEDEILKVVLEVLEEKPEAIEQYKNGRTNIVDFLVGQVMKKTRGQANPATTREFMIREIEK,-0.999
14,HMIGKDLLGYEVFSESGDLVGILKDVMWLPHSDVYVITNGGKELLIPVIPEVVKGINHEQGVIVISPM,-1.04
15,HMIGPYAAAKLMTNKDFVKWLSGGVEKSVFNPNSFGQHIRRLVQISEVNPDIRDEINAVVQGLTQ,-0.00821
16,HMIGRIKGQLIEKKSDSVVIDVHGIGYVVYVTEKTARSLTLGDQSRDISLYSELLVKEDLLQLVGFI,-0.0095
17,HMIGRRLKVARASAGLSLRELAARMDGVVTPQAIGKYERNEDMPGSRALMALASALGVSEGYLLSD,-0.0156
18,HMIHDSAESVVFPFGKYKGYTLAHVIREHPHYTYWIRDNADFSPLWREAVSLALQNRDIGHLNLPHVK,-0.606
19,HMIHMNMGQKINQLRLQKGFTLEELGNLVGVGKSTVRKWENGMIANMKRDKILLVAEALDTSPAYLMGWD,-0.462
20,HMIIENIVVEIKGEVYNPGLYILEQGSRINDLIELSGGFTKDANGTDLNLAKVLSDGEVIIVSKKG,-1.35
21,HMIIIMKPNASEEAVRKVTHIIESKGLQVHLSKGSQVTIVGVVGDKTRLQGSNIEISEGVDKVVAVT,-0.0906
22,HMIILDASASRAIGNGTIEETKWDFGNGESSTNRGGPIVERQIYANQAAYILKLSMKTNDGQLFTKEIQLL,-0.0529
23,HMIINKFERRKEIQIQFNNQERIKFKDFFLNLSKENIIVSFLILLELVRESLIDFSGTNENDIEFFIK,-0.834
24,HMIITTPYKVTASAINIRSGRGTSYSIIGTVSKGQTVDVYNNSLSKGWVKVKFSGSVGYAYAKYLEK,-0.116
25,HMIIVMSANANAREISEVIARIRAMGYDVHLSHGKERTIIGVIGRGTPIDREQLSLMSGVQQVMPV,-0.109
26,HMIKIEDILNVESVELSDSEYKKFLNGILINVKNLENGWAKVYSGNEFKGFGIVDKNLLKRKIVID,-0.407
27,HMIKIEDYTNKDYNKVEASLEVKGLVVNIEYKAVDDKAKYKGKEDLIIDQSVKKDATLVKGDTIILYLPK,0.0435
28,HMIKISDYLSEEDLNFIKEMEKIYPYFDFDSEGNLILTKSIDELKDKYGFDEAFVSRLDTVLNSR,-0.243
29,HMIKITLGWVISVRRHDLGYTQHKMARAVGISDLTVSRIESDDGITPDNNTLRKIAEYLKIDYNSLLTLK,-0.175
30,HMIKLIKKDTNISELKMSKMPWDVMLYGKPYQVVSIKGYVHTIGGRRGENDLWMYPRDESPTYENLIEFQ,0.279
